Here are results for one protein from PMC6063439.

This data set can be described thus: immunoblot of HEK293 lysate and culture medium. The settings on record: glycan lost; control: wild-type FMOD. Background: A western blot detects proteins with antibodies after separation by electrophoresis.

B1: fibromodulin (FMOD): FMODΔGAG (protein)
parent chain: MQWTSLLLLAGLFSLSQAQYEDDPHWWFHYLRSQQSTYYDPYDPYPYETYEPYPYGVDEGPAYTYGSPSPPDPRDCPQECDCPPNFPTAMYCDNRNLKYLPFVPSRMKYVYFQNNQITSIQEGVFDNATGLLWIALHGNQITSDKVGRKVFSKLRHLERLYLDHNNLTRMPGPLPRSLRELHLDHNQISRVPNNALEGLENLTALYLQHNEIQEVGSSMRGLRSLILLDLSYNHLRKVPDGLPSALEQLYMEHNNVYTVPDSYFRGAPKLLYVRLSHNSLTNNGLASNTFNSSSLLELDLSYNQLQKIPPVNTNLENLYLQGNRINEFSISSFCTVVDVVNFSKLQVLRLDGNEIKRSAMPADAPLCLRLASLIEI
On to B1, for which the expression_or_secretion result is given as “abolishes”.
